The record followed here is paper PMC11558545, “Mechanistic Insights into the Function of 14-3-3 Proteins as Negative Regulators of Brassinosteroid Signaling in Arabidopsis” (Plant and Cell Physiology, 2024).

Square brackets hold non-standard residues; d marks the D form. Ends that are not written are not given here. pT = C[C@@H](OP(=O)(O)O)[C@H](N)C(=O)O; pS = N[C@@H](COP(=O)(O)O)C(=O)O

One may read the stoichiometry N as the number of molecules, sites or subunits per partner or assembly.

First the molecules themselves.
B4: C-terminal truncated At14-3-3-ω^1−237 (domain or fragment, Arabidopsis thaliana, UniProt Q01525 1-237, looked up)
chain: MASGREEFVYMAKLAEQAERYEEMVEFMEKVSAAVDGDELTVEERNLLSVAYKNVIGARRASWRIISSIEQKEESRGNDDHVTAIREYRSKIETELSGICDGILKLLDSRLIPAAASGDSKVFYLKMKGDYHRYLAEFKTGQERKDAAEHTLAAYKSAQDIANAELAPTHPIRLGLALNFSVFYYEILNSPDRACNLAKQAFDEAIAELDTLGEESYKDSTLIMQLLRDNLTLWTSD
notes: 14-3-3 omega (GRF2), Arabidopsis thaliana, residues 1-237; also called truncated 14-3-3 ω; not shown: thioredoxin A, N-terminal, cleaved; 8xHis, N-terminal, cleaved; StrepII, N-terminal, cleaved
B5: Arabidopsis 14-3-3 lambda (At14-3-3-λ^1−248) (natural protein, Arabidopsis thaliana, UniProt P48349 1-248, looked up)
chain: MAATLGRDQYVYMAKLAEQAERYEEMVQFMEQLVTGATPAEELTVEERNLLSVAYKNVIGSLRAAWRIVSSIEQKEESRKNDEHVSLVKDYRSKVESELSSVCSGILKLLDSHLIPSAGASESKVFYLKMKGDYHRYMAEFKSGDERKTAAEDTMLAYKAAQDIAAADMAPTHPIRLGLALNFSVFYYEILNSSDKACNMAKQAFEEAIAELDTLGEESYKDSTLIMQLLRDNLTLWTSDMQEQMDEA
notes: 14-3-3 lambda (GRF6), Arabidopsis thaliana, full length, residues 1-248; The ITC text names 14-3-3λ without limits; a truncated 1-240 construct was also cloned; not shown: thioredoxin A, N-terminal, cleaved; 8xHis, N-terminal, cleaved; StrepII, N-terminal, cleaved
B8: Arabidopsis 14-3-3 omega, full length (At14-3-3-ω^1−259) (natural protein, Arabidopsis thaliana, UniProt Q01525 1-259, looked up)
chain: MASGREEFVYMAKLAEQAERYEEMVEFMEKVSAAVDGDELTVEERNLLSVAYKNVIGARRASWRIISSIEQKEESRGNDDHVTAIREYRSKIETELSGICDGILKLLDSRLIPAAASGDSKVFYLKMKGDYHRYLAEFKTGQERKDAAEHTLAAYKSAQDIANAELAPTHPIRLGLALNFSVFYYEILNSPDRACNLAKQAFDEAIAELDTLGEESYKDSTLIMQLLRDNLTLWTSDMQDDAADEIKEAAAPKPTEEQQ
notes: 14-3-3 omega (GRF2), Arabidopsis thaliana, full length, residues 1-259; ITC and SEC-RALS name 14-3-3 ω without limits; not shown: thioredoxin A, N-terminal, cleaved; 8xHis, N-terminal, cleaved; StrepII, N-terminal, cleaved

Data set [1] deals with B4. Description: crystal structure; co-crystallisation of 14-3-3 with 1-3 mM phosphopeptide; molecular replacement. Particulars: both partners purified.
For the next data set, the target named is T1, At14-3-3 λ^N233A (Arabidopsis thaliana, UniProt P48349 1-248, N233A).
T1 construct: 14-3-3 lambda (GRF6), Arabidopsis thaliana, with N233A; also called 14-3-3λ Asn233→ Ala mutant; source: E. coli BL21 (DE3) RIL, purified using the same protocol as the wild type; not shown: thioredoxin A, N-terminal, cleaved; 8xHis, N-terminal, cleaved; StrepII, N-terminal, cleaved
T1 sequence (looked up): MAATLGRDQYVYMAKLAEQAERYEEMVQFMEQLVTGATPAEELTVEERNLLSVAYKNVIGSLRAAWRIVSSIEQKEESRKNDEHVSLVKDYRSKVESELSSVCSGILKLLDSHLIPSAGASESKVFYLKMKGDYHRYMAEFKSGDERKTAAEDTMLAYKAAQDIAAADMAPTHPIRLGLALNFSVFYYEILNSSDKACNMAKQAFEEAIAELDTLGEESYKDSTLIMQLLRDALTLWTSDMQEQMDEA
The experiment in a line: ITC; Nano ITC, 25°C, 25 mM Hepes pH 7.0, 50 mM KCl; 600 μM peptide or phosphopeptide injected into 50 μM 14-3-3 protein in the cell, 25 injections. The settings on record: both partners purified. On the technique in general: Isothermal titration calorimetry measures the heat released or taken up as one component is titrated into another.

Data set [2] has as its target B5. The data set is described as above. Particulars: both partners purified.
Data set [3] has as its target B8. Description: crystal structure; co-crystallisation of 14-3-3 with 1-3 mM phosphopeptide; molecular replacement. The settings on record: both partners purified.
Data set [4] deals with T2, Arabidopsis 14-3-3 isoform kappa (At14-3-3-κ^1−248) (Arabidopsis thaliana, UniProt P48348 1-248).
T2 construct: 14-3-3 kappa (GRF8), Arabidopsis thaliana, full length, residues 1-248; The ITC text names 14-3-3κ without limits; a truncated 1-240 construct was also cloned; not shown: thioredoxin A, N-terminal, cleaved; 8xHis, N-terminal, cleaved; StrepII, N-terminal, cleaved
T2 sequence (looked up): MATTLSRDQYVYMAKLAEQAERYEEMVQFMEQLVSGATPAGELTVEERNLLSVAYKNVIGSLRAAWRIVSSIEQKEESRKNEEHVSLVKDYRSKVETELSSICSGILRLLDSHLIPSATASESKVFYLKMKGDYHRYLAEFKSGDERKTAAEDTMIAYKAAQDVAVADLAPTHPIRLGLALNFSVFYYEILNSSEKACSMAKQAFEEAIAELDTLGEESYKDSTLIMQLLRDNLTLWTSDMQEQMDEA
Description: ITC; Nano ITC, 25°C, 25 mM Hepes pH 7.0, 50 mM KCl; 600 μM peptide or phosphopeptide injected into 50 μM 14-3-3 protein in the cell, 25 injections. Particulars: both partners purified.

Data set [5] concerns the target B8. Described as above. The settings on record: both partners purified.
Data set [6] deals with the molecule itself. Description: crystal structure; co-crystallisation of 14-3-3 with 1-3 mM phosphopeptide; molecular replacement.
Data set [7] concerns the molecule itself. The experiment in a line: SEC; analytical, Superdex 200 increase 10/300 GL, 25 mM Hepes pH 7.0, 50 mM KCl; 500 μl of protein at 2.0 mg/ml. A general note: SEC sorts molecules by how far they enter the pores of the column.

B1: pBZR1^169−175 peptide (peptide)
peptide: RISN[pS]AP
notes: also called RISNpSAP; source: synthetic peptide (Peptide Specialty Laboratories)
In the case of B1, the binding result in data set [1] and in data set [2] was “binds” throughout. In addition, the “fold reduction of interaction by the N233A mutation” value in the data set with At14-3-3 λ^N233A is ~5 fold.

B2: pBZR1^169−184 peptide (peptide)
peptide: RISN[pS]CPV[pT]PPVSSPT
notes: also called extended BZR1 linear motif; source: synthetic peptide (Peptide Specialty Laboratories)
With B2, in data set [3], the binding result is “binds”. Also, in data set [4], the “fold reduction of binding against the BZR1^169−175 motif” value is ~10 fold and the “stoichiometry N” value was ~1.

B3: pBKI1^265−272 peptide (peptide)
peptide: RGELF[pS]AP
notes: also called RGELFpSAP; source: synthetic peptide (Peptide Specialty Laboratories)
As to B3, the binding result (in data set [1]; with At14-3-3 λ^N233A; in data set [2]; in data set [5]) was “binds” throughout.

As to B4, the binding result in data set [6] is listed as “binds”.

Take B5: the binding result in data set [6] was “binds”.

B6: 14-3-3 λ^R136L/Y137F (natural protein, Arabidopsis thaliana, UniProt P48349 1-248, looked up)
chain: MAATLGRDQYVYMAKLAEQAERYEEMVQFMEQLVTGATPAEELTVEERNLLSVAYKNVIGSLRAAWRIVSSIEQKEESRKNDEHVSLVKDYRSKVESELSSVCSGILKLLDSHLIPSAGASESKVFYLKMKGDYHLFMAEFKSGDERKTAAEDTMLAYKAAQDIAAADMAPTHPIRLGLALNFSVFYYEILNSSDKACNMAKQAFEEAIAELDTLGEESYKDSTLIMQLLRDNLTLWTSDMQEQMDEA
notes: 14-3-3 lambda (GRF6), Arabidopsis thaliana, with R136L and Y137F; also called 14-3-3λ Arg136→Leu/Tyr137→ Phe double mutant; source: E. coli BL21 (DE3) RIL, purified using the same protocol as the wild type; not shown: thioredoxin A, N-terminal, cleaved; 8xHis, N-terminal, cleaved; StrepII, N-terminal, cleaved
For the molecule B6, the “stoichiometry N” value in data set [7] is 2.

B7: pBRI1^869−874 peptide (peptide)
peptide: RKL[pT]FA
notes: BRI1, Arabidopsis thaliana, residues 869-874, N-lobe of the kinase domain; also called RKLpTFA; source: synthetic peptide (Peptide Specialty Laboratories)
B7: the “fold reduction of interaction by the N233A mutation” value with At14-3-3 λ^N233A was ~2 fold.

Consider B8, for which, in data set [6], the binding result is given as “binds”.
